Measured values reported in the supplement of paper PMC11246515.
± gives the standard deviation of the averaged measurements.

Test: total protein half-life in vivo (active degradation + dilution); higher = more stable protein
[1] = wild type E. coli NCM3722, growth: C-lim chemostat, doubling time 3 h
[2] = wild type E. coli NCM3722, growth: C-lim chemostat, doubling time 12 h
[3] = E. coli NCM3722 delta-clpP delta-lon delta-hslV, growth: N-lim chemostat, doubling time 6 h
[4] = E. coli NCM3722 delta-clpP, growth: N-lim chemostat, doubling time 6 h
[5] = E. coli NCM3722 delta-hslV, growth: N-lim chemostat, doubling time 6 h
[6] = wild type E. coli NCM3722, growth: C-lim chemostat, doubling time 6 h
[7] = wild type E. coli NCM3722, growth: N-lim chemostat, doubling time 6 h
[8] = wild type E. coli NCM3722, growth: N-lim chemostat, doubling time 12 h
[9] = wild type E. coli NCM3722, growth: P-lim chemostat, doubling time 6 h
[10] = wild type E. coli NCM3722, growth: P-lim chemostat, doubling time 12 h
[11] = E. coli NCM3722 delta-lon, growth: N-lim chemostat, doubling time 6 h
[12] = E. coli NCM3722 delta-smpB, growth: N-lim chemostat, doubling time 6 h

Sequence | total protein half-life in vivo [1] [h] | total protein half-life in vivo [2] [h] | total protein half-life in vivo [3] [h] | total protein half-life in vivo [4] [h] | total protein half-life in vivo [5] [h] | total protein half-life in vivo [6] [h] | total protein half-life in vivo [7] [h] | total protein half-life in vivo [8] [h] | total protein half-life in vivo [9] [h] | total protein half-life in vivo [10] [h] | total protein half-life in vivo [11] [h] | total protein half-life in vivo [12] [h]
MLSTQFNRDNQYQAITKPSLLAGCIALALLPSAAFAAPATEETVIVEGSATAPDDGENDYSVTSTSAGTKMQMTQRDIPQSVTIVSQQRMEDQQLQTLGEVMENTLGISKSQADSDRALYYSRGFQIDNYMVDGIPTYFESRWNLGDALSDMALFERVEVVRGATGLMTGTGNPSAAINMVRKHATSREFKGDVSAEYGSWNKERYVADLQSPLTEDGKIRARIVGGYQNNDSWLDRYNSEKTFFSGIVDADLGDLTTLSAGYEYQRIDVNSPTWGGLPRWNTDGSSNSYDRARSTAPDWAYNDKEINKVFMTLKQQFADTWQATLNATHSEVEFDSKMMYVDAYVNKADGMLVGPYSNYGPGFDYVGGTGWNSGKRKVDALDLFADGSYELFGRQHNLMFGGSYSKQNNRYFSSWANIFPDEIGSFYNFNGNFPQTDWSPQSLAQDDTTHMKSLYAATRVTLADPLHLILGARYTNWRVDTLTYSMEKNHTTPYAGLVFDINDNWSTYASYTSIFQPQNDRDSSGKYLAPITGNNYELGLKSDWMNSRLTTTLAIFRIEQDNVAQSTGTPIPGSNGETAYKAVDGTVSKGVEFELNGAITDNWQLTFGATRYIAEDNEGNAVNPNLPRTTVKMFTSYRLPVMPELTVGGGVNWQNRVYTDTVTPYGTFRAEQGSYALVDLFTRYQVTKNFSLQGNVNNLFDKTYDTNVEGSIVYGTPRNFSITGTYQF | 3.33 ± 0.05 | > 16 | – | – | – | – | – | – | – | – | – | –
MLTLLHLLSAVALLVWGTHIVRTGVMRVFGARLRTVLSRSVEKKPLAFCAGIGVTALVQSSNATTMLVTSFVAQDLVALAPALVIVLGADVGTALMARILTFDLSWLSPLLIFIGVIFFLGRKQSRAGQLGRVGIGLGLILLALELIVQAVTPITQANGVQVIFASLTGDILLDALIGAMFAIISYSSLAAVLLTATLTAAGIISFPVALCLVIGANLGSGLLAMLNNSAANAAARRVALGSLLFKLVGSLIILPFVHLLAETMGKLSLPKAELVIYFHVFYNLVRCLVMLPFVDPMARFCKTIIRDEPELDTQLRPKHLDVSALDTPTLALANAARETLRIGDAMEQMMEGLNKVMHGEPRQEKELRKLADDINVLYTAIKLYLARMPKEELAEEESRRWAEIIEMSLNLEQASDIVERMGSEIADKSLAARRAFSLDGLKELDALYEQLLSNLKLAMSVFFSGDVTSARRLRRSKHRFRILNRRYSHAHVDRLHQQNVQSIETSSLHLGLLGDMQRLNSLFCSVAYSVLEQPDEDEGRDEY [P0AF43] | – | – | 6.4 | 6.35 ± 0.26 | 5.73 ± 0.74 | 5.38 ± 0.19 | 6.48 | 10.5 ± 4.5 | 6.1173 ± 0.0061 | 11.55 ± 0.033 | – | –
MLTRLREIVEKVASAPRLNEALNILVTDICLAMDTEVCSVYLADHDRRCYYLMATRGLKKPRGRTVTLAFDEGIVGLVGRLAEPINLADAQKHPSFKYIPSVKEERFRAFLGVPIIQRRQLLGVLVVQQRELRQYDESEESFLVTLATQMAAILSQSQLTALFGQYRQTRIRALPAAPGVAIAEGWQDATLPLMEQVYQASTLDPALERERLTGALEEAANEFRRYSKRFAAGAQKETAAIFDLYSHLLSDTRLRRELFAEVDKGSVAEWAVKTVIEKFAEQFAALSDNYLKERAGDLRALGQRLLFHLDDANQGPNAWPERFILVADELSATTLAELPQDRLVGVVVRDGAANSHAAIMVRALGIPTVMGADIQPSVLHRRTLIVDGYRGELLVDPEPVLLQEYQRLISEEIELSRLAEDDVNLPAQLKSGERIKVMLNAGLSPEHEEKLGSRIDGIGLYRTEIPFMLQSGFPSEEEQVAQYQGMLQMFNDKPVTLRTLDVGADKQLPYMPISEENPCLGWRGIRITLDQPEIFLIQVRAMLRANAATGNLNILLPMVTSLDEVDEARRLIERAGREVEEMIGYEIPKPRIGIMLEVPSMVFMLPHLAKRVDFISVGTNDLTQYILAVDRNNTRVANIYDSLHPAMLRALAMIAREAEIHGIDLRLCGEMAGDPMCVAILIGLGYRHLSMNGRSVARAKYLLRRIDYAEAENLAQRSLEAQLATEVRHQVAAFMERRGMGGLIRGGL | 3.06 ± 0.15 | 10.7 ± 0.17 | 5.82 ± 0.99 | 5.146 ± 0.0092 | 4.39 ± 0.15 | 5.78 ± 0.21 | 4.37 ± 0.11 | 7.03 ± 0.12 | 6.54 ± 0.36 | 11.5 ± 1.8 | 4.53 ± 0.17 | 4.44 ± 0.084
MLTSFKLHSLKPYTLKSSMILEIITYILCFFSMIIAFVDNTFSIKIYNITAIVCLLSLILRGRQENYNIKNLILPLSIFLIGLLDLIWYSAFKVDNSPFRATYHSYLNTAKIFIFGSFIVFLTLTSQLKSKKESVLYTLYSLSFLIAGYAMYINSIHENDRISFGVGTATGAAYSTMLIGIVSGVAILYTKKNHPFLFLLNSCAVLYVLALTQTRATLLLFPIICVAALIAYYNKSPKKFTSSIVLLIAILASIVIIFNKPIQNRYNEALNDLNSYTNANSVTSLGARLAMYEIGLNIFIKSPFSFRSAESRAESMNLLVAEHNRLRGALEFSNVHLHNEIIEAGSLKGLMGIFSTLFLYFSLFYIAYKKRALGLLILTLGIVGIGLSDVIIWARSIPIIIISAIVLLLVINNRNNTIN | 3.42 | – | – | – | – | – | – | – | – | – | – | 5.65 ± 0.45
MLTVIAEIRTRPGQHHRQAVLDQFAKIVPTVLKEEGCHGYAPMVDCAAGVSFQSMAPDSIVMIEQWESIAHLEAHLQTPHMKAYSEAVKGDVLEMNIRILQPGI [P0ADU2] | 3.14 ± 0.34 | 10.4 ± 0.39 | 5.001 ± 0.017 | – | 4.57 ± 0.38 | 5.35 ± 0.099 | 4.36 ± 0.28 | 7 ± 0.33 | 5.84 ± 0.12 | 11.6 ± 0.82 | 5.31 ± 0.5 | 4.72 ± 0.06
MLVSCAMRLHSGVFPDYAEKLPQEEKMEKEDSFPQRVWQIVAAIPEGYVTTYGDVAKLAGSPRAARQVGGVLKRLPEGSTLPWHRVVNRHGTISLTGPDLQRQRQALLAEGVMVSGSGQIDLQRYRWNY [P0AFP2] | – | 3.96 | 5.49 ± 0.093 | – | – | 4.04 | – | – | – | – | – | –
MLVWLAEHLVKYYSGFNVFSYLTFRAIVSLLTALFISLWMGPRMIAHLQKLSFGQVVRNDGPESHFSKRGTPTMGGIMILTAIVISVLLWAYPSNPYVWCVLVVLVGYGVIGFVDDYRKVVRKDTKGLIARWKYFWMSVIALGVAFALYLAGKDTPATQLVVPFFKDVMPQLGLFYILLAYFVIVGTGNAVNLTDGLDGLAIMPTVFVAGGFALVAWATGNMNFASYLHIPYLRHAGELVIVCTAIVGAGLGFLWFNTYPAQVFMGDVGSLALGGALGIIAVLLRQEFLLVIMGGVFVVETLSVILQVGSFKLRGQRIFRMAPIHHHYELKGWPEPRVIVRFWIISLMLVLIGLATLKVR [P0A6W3] | – | 12.3 ± 0.13 | 6.14 | 5.83 | 5.23 | – | 6.35 ± 0.4 | 13.1 | 6.06 | 11.1 ± 0.92 | 5.13 ± 0.073 | 7.03
MLWGFVFVSFISKELALGQSEYISWVKCTSWLSNFVNLRGLRQPDGRPLYEYHATNDEYTQLTQLLRAVGQSQSNICNRDFAACFVLFCSEWYRRDYERQCGWTWDPIYKKIGISFTATELGTIVPKGMEDYWLRPIRFYESERRNFLGTLFSEGGLPFRLLKESDSRFLAVFSRILGQYEQAKQSGFSALSLARAVIEKSALPTVFSEDTSVELISHMADNLNSLVLTHNLINHKEPVQQLEKVHPTWRSEFPIPLDDETGTHFLNGLLCAASVEAKPRLQKNKSTRCQFYWSEKHPDELRVIVSLPDEVSFPVTSEPSTTRFELAICEDGEEVSGLGPAYASLENRQATVRLRKSEVRFGRQNPSAGLSLVARAGGMIVGSIKLDDSEIAIGEVPLTFIVDADQWLLQGQASCSVRSSDVLIVLPRDNSNVAGFDGQSRAVNVLGLKALPVKGCQDVTVTANETYRIRTGREQISIGRFALNGKRASWVCHPDETFIGVPKVISTLPDIQSIDVTRYTC | – | – | – | – | – | – | 5.44 | – | – | – | – | –
MLYDKSLERDNCGFGLIAHIEGEPSHKVVRTAIHALARMQHRGAILADGKTGDGCGLLLQKPDRFFRIVAQERGWRLAKNYAVGMLFLNKDPELAAAARRIVEEELQRETLSIVGWRDVPTNEGVLGEIALSSLPRIEQIFVNAPAGWRPRDMERRLFIARRRIEKRLEADKDFYVCSLSNLVNIYKGLCMPTDLPRFYLDLADLRLESAICLFHQRFSTNTVPRWPLAQPFRYLAHNGEINTITGNRQWARARTYKFQTPLIPDLHDAAPFVNETGSDSSSMDNMLELLLAGGMDIIRAMRLLVPPAWQNNPDMDPELRAFFDFNSMHMEPWDGPAGIVMSDGRFAACNLDRNGLRPARYVITKDKLITCASEVGIWDYQPDEVVEKGRVGPGELMVIDTRSGRILHSAETDDDLKSRHPYKEWMEKNVRRLVPFEDLPDEEVGSRELDDDTLASYQKQFNYSAEELDSVIRVLGENGQEAVGSMGDDTPFAVLSSQPRIIYDYFRQQFAQVTNPPIDPLREAHVMSLATSIGREMNVFCEAEGQAHRLSFKSPILLYSDFKQLTTMKEEHYRADTLDITFDVTKTTLEATVKELCDKAEKMVRSGTVLLVLSDRNIAKDRLPVPAPMAVGAIQTRLVDQSLRCDANIIVETASARDPHHFAVLLGFGATAIYPYLAYETLGRLVDTHAIAKDYRTVMLNYRNGINKGLYKIMSKMGISTIASYRCSKLFEAVGLHDDVVGLCFQGAVSRIGGASFEDFQQDLLNLSKRAWLARKPISQGGLLKYVHGGEYHAYNPDVVRTLQQAVQSGEYSDYQEYAKLVNERPATTLRDLLAITPGENAVNIADVEPASELFKRFDTAAMSIGALSPEAHEALAEAMNSIGGNSNSGEGGEDPARYGTNKVSRIKQVASGRFGVTPAYLVNADVIQIKVAQGAKPGEGGQLPGDKVTPYIAKLRYSVPGVTLISPPPHHDIYSIEDLAQLIFDLKQVNPKAMISVKLVSEPGVGTIATGVAKAYADLITIAGYDGGTGASPLSSVKYAGCPWELGLVETQQALVANGLRHKIRLQVDGGLKTGVDIIKAAILGAESFGFGTGPMVALGCKYLRICHLNNCATGVATQDDKLRKNHYHGLPFKVTNYFEFIARETRELMAQLGVTRLVDLIGRTDLLKELDGFTAKQQKLALSKLLETAEPHPGKALYCTENNPPFDNGLLNAQLLQQAKPFVDERQSKTFWFDIRNTDRSVGASLSGYIAQTHGDQGLAADPIKAYFNGTAGQSFGVWNAGGVELYLTGDANDYVGKGMAGGLIAIRPPVGSAFRSHEASIIGNTCLYGATGGRLYAAGRAGERFGVRNSGAITVVEGIGDNGCEYMTGGIVCILGKTGVNFGAGMTGGFAYVLDESGDFRKRVNPELVEVLSVDALAIHEEHLRGLITEHVQHTGSQRGEEILANWSTFATKFALVKPKSSDVKALLGHRSRSAAELRVQAQ | 2.72 ± 0.22 | 8.46 ± 0.56 | 6.38 ± 0.89 | 6.254 ± 0.044 | 4.18 ± 0.16 | 4.89 ± 0.053 | 3.92 ± 0.12 | 6.4 ± 0.52 | 5.31 ± 0.17 | 8.43 ± 0.51 | 4.437 ± 0.013 | 4.06 ± 0.1
MLYVIYAQDKADSLEKRLSVRPAHLARLQLLHDEGRLLTAGPMPAVDSNDPGAAGFTGSTVIAEFESLEAAQAWADADPYVAAGVYEHVSVKPFKKVF [P0AB55] | – | 9.37 | 5.05 ± 0.14 | 4.751 ± 0.018 | 4.51 ± 0.13 | 4.96 ± 0.49 | – | 7.02 ± 0.86 | 6 | – | 5.1 ± 0.41 | 5.34 ± 1
MMANIWWSLPLTLIVFFAARKLAARYKFPLLNPLLVAMVVIIPFLMLTGISYDSYFKGSEVLNDLLQPAVVALAYPLYEQLHQIRARWKSIITICFIGSVVAMVTGTSVALLMGASPEIAASILPKSVTTPIAMAVGGSIGGIPAISAVCVIFVGILGAVFGHTLLNAMRIRTKAARGLAMGTASHALGTARCAELDYQEGAFSSLALVLCGIITSLIAPFLFPIILAVMG [P0AD19] | – | – | – | – | – | – | 5.99 | – | – | – | – | –
